Measurements from PMC3237733.

Target: dansylated-FadAc (Fusobacterium nucleatum 12230) (UniProt Q5I6B0)
Experiment: other fluorescence titration

B1: GST-VE-cadherin_(415–534) (domain or fragment)
chain: KGQFFRVTKKGDIYNEKELDREVYPWYNLTVEAKELDSTGTPTGKESIVQVHIEVLDENDNAPEFAKPYQPKVCENAVHGQLVLQISAIDKDITPRNVKFKFILNTENNFTLTDNHDNTA
Kd: 15.9 µM
